Test results published in US20180326082A1 (Sanofi, published 2018).
Read-outs that look alike come from different tables or passages of the source.

Columns and labels:
porcine TSH receptor [1] = biological target: T1, porcine TSH receptor (porcine, UniProt Q8SPP9 22-764, limits assumed); assay: competition ELISA; displacement of biotinylated rhTSH from immobilized porcine TSH receptor
T1 construct: Bought, coated on kit plates; the construct is not described; also called immobilized porcine TSH receptor
T1 sequence (Q8SPP9 22-764 limits assumed): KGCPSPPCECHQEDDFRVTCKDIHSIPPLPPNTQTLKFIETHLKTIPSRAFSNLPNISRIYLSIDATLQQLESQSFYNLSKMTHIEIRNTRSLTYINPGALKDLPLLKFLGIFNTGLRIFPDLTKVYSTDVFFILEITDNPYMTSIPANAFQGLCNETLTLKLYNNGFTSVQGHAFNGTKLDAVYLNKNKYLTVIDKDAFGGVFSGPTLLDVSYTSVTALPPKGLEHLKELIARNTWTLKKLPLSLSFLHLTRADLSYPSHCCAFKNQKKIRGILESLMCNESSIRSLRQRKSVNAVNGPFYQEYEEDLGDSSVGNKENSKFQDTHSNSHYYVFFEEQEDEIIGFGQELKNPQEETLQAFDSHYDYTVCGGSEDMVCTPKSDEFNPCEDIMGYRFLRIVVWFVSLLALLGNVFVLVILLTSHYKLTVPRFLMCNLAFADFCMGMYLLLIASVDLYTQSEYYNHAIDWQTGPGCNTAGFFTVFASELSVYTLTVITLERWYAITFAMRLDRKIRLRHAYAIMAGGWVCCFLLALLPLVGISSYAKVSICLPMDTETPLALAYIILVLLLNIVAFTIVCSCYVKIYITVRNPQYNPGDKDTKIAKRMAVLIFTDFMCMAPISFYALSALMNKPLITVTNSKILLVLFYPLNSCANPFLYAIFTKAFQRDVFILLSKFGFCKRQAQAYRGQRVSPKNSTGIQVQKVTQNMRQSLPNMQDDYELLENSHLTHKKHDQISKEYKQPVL
Description: (§1) Purified PEGylated conjugates were analyzed by in vitro porcine TSH receptor binding assay using the TSH Receptor Autoantibody 2nd Generation ELISA kit from RSR Limited (Kronus, Star, Id.). Instead of using the biotinylated human monoclonal autoantibody to the TSH receptor provided by the kit, we biotinylated Thyrogen® (rhTSH) to use for competitive inhibition of binding to TSH receptor. Binding of biotinylated rhTSH to immobilized porcine TSH receptor was inhibited by either rhTSH control or PEGylated rhTSH conjugates and IC₅₀ values were measured.
(§2) Thyrogen® was biotinylated with 1.7 to 1.8 biotins per protein using the ChromaLink™ Biotin Labeling Reagent according to the manufacturer's protocol (QED Bioscience Inc., San Diego, Calif.) and buffer exchanged into 50 mM sodium phosphate, 150 mM sodium chloride pH 7.0 with a Zeba™ Desalt Spin Column (Thermo Scientific, Rockford, Ill.). In vitro measurement of receptor binding was performed by competition of biotinylated Thyrogen® and PEG-rhTSH conjugate for binding to porcine TSH receptor immobilized onto 96-well plates supplied with the TSH Receptor Autoantibody 2nd Generation ELISA kit from RSR Limited (Kronus, Star, Id.). PEG-rhTSH conjugates were serially diluted 1:5 from 16 μM to 41 pM in assay buffer (100 mM HEPES pH 7.5, 20 mM EDTA, 1% BSA, 0.5% Triton X-100) and mixed 1:1 with biotinylated Thyrogen® diluted 1000-fold in assay buffer. The mixture was added to each receptor-coated well and incubated at 25° C. for 25 minutes. Unbound rhTSH was washed away and streptavidin peroxidase was added at 25° C. for 20 minutes according to the RSR Limited ELISA protocol to determine the amount of biotinylated Thyrogen® bound to the plate. The plate was then washed three times to remove excess unbound streptavidin peroxidase and then tetramethylbenzidine (TMB) was added to each well and incubated in the dark at 25° C. for 30 minutes. The reaction which was quenched with 0.5M sulfuric acid stop buffer and the absorbance of each well was read at 450 nm using a SpectraMax® 340pc plate reader (Molecular Devices, Sunnyvale, Calif.). The data was fit using a sigmoidal dose response equation with GraphPad Prism software to generate IC₅₀ values.

porcine TSH receptor [2] = biological target: T1, porcine TSH receptor; assay: as above; remark: listed apart in the source
Description: as §1, §2

porcine TSH receptor [3] = biological target: T1, porcine TSH receptor; assay: in vitro TSH receptor binding assay (competition ELISA)

Row | IC50 (porcine TSH receptor [1]) [µM] | fold change (IC50 against rhTSH) (porcine TSH receptor [1]) [fold] | IC50 (porcine TSH receptor [2]) [µM] | fold change (IC50 against rhTSH) (porcine TSH receptor [2]) [fold] | fold decrease of in vitro TSH receptor binding affinity, compared to the rhTSH control (porcine TSH receptor [3]) [fold] | Binder
1 | 0.196 | 5.3 | – | – | – | 40 kD monoSAM PEGylated rhTSH (ligand, see alpha chain; glycan at ASN23 is a possible PEG site; one 40 kD aminoxy PEG per protein on periodate-oxidized sialic acid of an N-linked glycan (ASN52 or ASN78 of alpha, or ASN23 of beta); 58% of the conjugate modified on the alpha subunit, Sialic acid-mediated (SAM) monoPEGylation of rhTSH; also called 40 kD SAM; mono-40 kDa aminoxy PEG-TSH (SAM PEGylation)) chain 1: not shown chain 2: FCIPTEYTMHIERRECAYCLTINTTICAGYCMTRDINGKLFLPKYALSQDVCTYRDFIYRTVEIPGCPLHVAPYFSYPVALSCKCGKCNTDYSDCIHEAIKTNYCTKPQKSY
2 | 0.0367 | 1 | 0.028 | 1 | – | recombinant human TSH (rhTSH), THYROGEN Thyroid Stimulating Hormone (ligand, N-linked carbohydrate chain at ASN23; N-linked carbohydrate chains at ASN52 and ASN78, Heterodimer of alpha and beta subunit; also called TSH control; control TSH, starting material) chain 1: not shown chain 2: FCIPTEYTMHIERRECAYCLTINTTICAGYCMTRDINGKLFLPKYALSQDVCTYRDFIYRTVEIPGCPLHVAPYFSYPVALSCKCGKCNTDYSDCIHEAIKTNYCTKPQKSY
3 | 0.876 | 31.2 | 0.876 | 31.2 | – | 40 kD Lysine mono-PEGylated rhTSH (ligand, see alpha chain; one 40 kDa NHS PEG per protein on a lysine; which lysine and subunit are not stated, SEC fraction of the mono-PEGylated species; also called mono-40 kDa NHS PEG-TSH (Lysine PEGylation)) chain 1: not shown chain 2: FCIPTEYTMHIERRECAYCLTINTTICAGYCMTRDINGKLFLPKYALSQDVCTYRDFIYRTVEIPGCPLHVAPYFSYPVALSCKCGKCNTDYSDCIHEAIKTNYCTKPQKSY
4 | 0.397 | 10.8 | 0.319 | 11.4 | 11.1 | 40 kD N-terminal mono-PEGylated rhTSH (ligand, see alpha chain; one 40 kD aldehyde PEG per protein at an N-terminus (reductive amination); which subunit is not stated) chain 1: not shown chain 2: FCIPTEYTMHIERRECAYCLTINTTICAGYCMTRDINGKLFLPKYALSQDVCTYRDFIYRTVEIPGCPLHVAPYFSYPVALSCKCGKCNTDYSDCIHEAIKTNYCTKPQKSY
5 | – | – | 0.281 | 10 | – | 50 kD 3-arm PEG G22C rhTSH (ligand, 50 kD 3-arm cysteine-reactive PEG on Cys22) chain 1: not shown chain 2: FCIPTEYTMHIERRECAYCLTINTTICAGYCMTRDINGKLFLPKYALSQDVCTYRDFIYRTVEIPGCPLHVAPYFSYPVALSCKCGKCNTDYSDCIHEAIKTNYCTKPQKSY
6 | – | – | 11.3 | 404 | – | 60 kD 2-arm PEG G22C rhTSH (ligand, 60 kD 2-arm cysteine-reactive PEG on Cys22) chain 1: not shown chain 2: FCIPTEYTMHIERRECAYCLTINTTICAGYCMTRDINGKLFLPKYALSQDVCTYRDFIYRTVEIPGCPLHVAPYFSYPVALSCKCGKCNTDYSDCIHEAIKTNYCTKPQKSY
7 | – | – | 4020 | 144000 | – | 60 kD 4-arm PEG G22C rhTSH (ligand, 60 kD 4-arm cysteine-reactive PEG on Cys22) chain 1: not shown chain 2: FCIPTEYTMHIERRECAYCLTINTTICAGYCMTRDINGKLFLPKYALSQDVCTYRDFIYRTVEIPGCPLHVAPYFSYPVALSCKCGKCNTDYSDCIHEAIKTNYCTKPQKSY
8 | – | – | 0.248 | 8.9 | – | 40 kD linear PEG G22C rhTSH (ligand, 40 kD linear cysteine-reactive PEG on Cys22, also called 40 kD linear G22C; 40 kD G22C) chain 1: not shown chain 2: FCIPTEYTMHIERRECAYCLTINTTICAGYCMTRDINGKLFLPKYALSQDVCTYRDFIYRTVEIPGCPLHVAPYFSYPVALSCKCGKCNTDYSDCIHEAIKTNYCTKPQKSY

Further lines, the binder ahead of its results:

Row | Binder | IC50 (porcine TSH receptor [1]) [µM] | fold change (IC50 against rhTSH) (porcine TSH receptor [1]) [fold] | IC50 (porcine TSH receptor [2]) [µM] | fold change (IC50 against rhTSH) (porcine TSH receptor [2]) [fold] | fold decrease of in vitro TSH receptor binding affinity, compared to the rhTSH control (porcine TSH receptor [3]) [fold]
9 | 20 kD monoSAM PEGylated rhTSH (ligand, see alpha chain; glycan at ASN23 is a possible PEG site; one 20 kD aminoxy PEG per protein on periodate-oxidized sialic acid of an N-linked glycan (ASN52 or ASN78 of alpha, or ASN23 of beta), Sialic acid-mediated (SAM) monoPEGylation of rhTSH; also called 20 kD SAM) chain 1: not shown chain 2: FCIPTEYTMHIERRECAYCLTINTTICAGYCMTRDINGKLFLPKYALSQDVCTYRDFIYRTVEIPGCPLHVAPYFSYPVALSCKCGKCNTDYSDCIHEAIKTNYCTKPQKSY | 0.0923 | 2.5 | – | – | –
10 | 40 kD GAM- PEGylated rhTSH (ligand, see alpha chain; glycan at ASN23 is a possible PEG site; one 40 kD aminoxy PEG per protein on galactose oxidase-oxidized galactose of an N-linked glycan (ASN52 or ASN78 of alpha, or ASN23 of beta); 77% of the conjugate modified on the alpha subunit) chain 1: not shown chain 2: FCIPTEYTMHIERRECAYCLTINTTICAGYCMTRDINGKLFLPKYALSQDVCTYRDFIYRTVEIPGCPLHVAPYFSYPVALSCKCGKCNTDYSDCIHEAIKTNYCTKPQKSY | 0.294 | 8 | – | – | –
11 | 10 kD multiSAM PEGylated rhTSH (ligand, see alpha chain; glycan at ASN23 is a possible PEG site; more than one 10 kD aminoxy PEG per protein on periodate-oxidized sialic acid of the N-linked glycans (ASN52, ASN78 of alpha; ASN23 of beta); split between sites not stated) chain 1: not shown chain 2: FCIPTEYTMHIERRECAYCLTINTTICAGYCMTRDINGKLFLPKYALSQDVCTYRDFIYRTVEIPGCPLHVAPYFSYPVALSCKCGKCNTDYSDCIHEAIKTNYCTKPQKSY | 0.138 | 3.8 | – | – | –
12 | 20 kD GAM+ PEGylated rhTSH (ligand, see alpha chain; glycan at ASN23 is a possible PEG site; sialic acid removed with neuraminidase; one 20 kD aminoxy PEG per protein on galactose oxidase-oxidized galactose of an N-linked glycan (ASN52 or ASN78 of alpha, or ASN23 of beta)) chain 1: not shown chain 2: FCIPTEYTMHIERRECAYCLTINTTICAGYCMTRDINGKLFLPKYALSQDVCTYRDFIYRTVEIPGCPLHVAPYFSYPVALSCKCGKCNTDYSDCIHEAIKTNYCTKPQKSY | 0.0817 | 2.2 | – | – | –
13 | 20 kD GAM- PEGylated rhTSH (ligand, see alpha chain; glycan at ASN23 is a possible PEG site; one 20 kD aminoxy PEG per protein on galactose oxidase-oxidized galactose of an N-linked glycan (ASN52 or ASN78 of alpha, or ASN23 of beta)) chain 1: not shown chain 2: FCIPTEYTMHIERRECAYCLTINTTICAGYCMTRDINGKLFLPKYALSQDVCTYRDFIYRTVEIPGCPLHVAPYFSYPVALSCKCGKCNTDYSDCIHEAIKTNYCTKPQKSY | 0.101 | 2.7 | – | – | –
14 | 10 kD monoSAM PEGylated rhTSH (ligand, see alpha chain; glycan at ASN23 is a possible PEG site; one 10 kD aminoxy PEG per protein on periodate-oxidized sialic acid of an N-linked glycan (ASN52 or ASN78 of alpha, or ASN23 of beta), Sialic acid-mediated (SAM) monoPEGylation of rhTSH; also called 10 kD SAM) chain 1: not shown chain 2: FCIPTEYTMHIERRECAYCLTINTTICAGYCMTRDINGKLFLPKYALSQDVCTYRDFIYRTVEIPGCPLHVAPYFSYPVALSCKCGKCNTDYSDCIHEAIKTNYCTKPQKSY | 0.0781 | 2.1 | – | – | –
15 | 40 kD GAM+ PEGylated rhTSH (ligand, see alpha chain; glycan at ASN23 is a possible PEG site; sialic acid removed with neuraminidase; one 40 kD aminoxy PEG per protein on galactose oxidase-oxidized galactose of an N-linked glycan (ASN52 or ASN78 of alpha, or ASN23 of beta); 66% of the conjugate modified on the alpha subunit) chain 1: not shown chain 2: FCIPTEYTMHIERRECAYCLTINTTICAGYCMTRDINGKLFLPKYALSQDVCTYRDFIYRTVEIPGCPLHVAPYFSYPVALSCKCGKCNTDYSDCIHEAIKTNYCTKPQKSY | 0.133 | 3.6 | – | – | –
16 | 40 kD 2-arm PEG G22C rhTSH (ligand, 40 kD 2-arm cysteine-reactive PEG on Cys22) chain 1: not shown chain 2: FCIPTEYTMHIERRECAYCLTINTTICAGYCMTRDINGKLFLPKYALSQDVCTYRDFIYRTVEIPGCPLHVAPYFSYPVALSCKCGKCNTDYSDCIHEAIKTNYCTKPQKSY | – | – | 0.417 | 14.9 | –
17 | G22C rhTSH (ligand, introduced cysteine found capped after expression and purification, Cysteine mutant without PEG, produced from CHO cells; also called TSH G22C(alpha); G22C(a)) chain 1: not shown chain 2: FCIPTEYTMHIERRECAYCLTINTTICAGYCMTRDINGKLFLPKYALSQDVCTYRDFIYRTVEIPGCPLHVAPYFSYPVALSCKCGKCNTDYSDCIHEAIKTNYCTKPQKSY | – | – | 0.0416 | 1.5 | –
18 | 40 kD 4-arm PEG G22C rhTSH (ligand, 40 kD 4-arm cysteine-reactive PEG on Cys22) chain 1: not shown chain 2: FCIPTEYTMHIERRECAYCLTINTTICAGYCMTRDINGKLFLPKYALSQDVCTYRDFIYRTVEIPGCPLHVAPYFSYPVALSCKCGKCNTDYSDCIHEAIKTNYCTKPQKSY | – | – | 0.743 | 26.5 | –
